Reference: paper PMC6282205

Target: Neisseria meningitidis Cas9 (NmeCas9, from strain 8013), 6×His-tagged (Neisseria meningitidis (strain 8013)) (UniProt C9X1G5)
UniProt C9X1G5, sequence (C9X1G5 whole entry): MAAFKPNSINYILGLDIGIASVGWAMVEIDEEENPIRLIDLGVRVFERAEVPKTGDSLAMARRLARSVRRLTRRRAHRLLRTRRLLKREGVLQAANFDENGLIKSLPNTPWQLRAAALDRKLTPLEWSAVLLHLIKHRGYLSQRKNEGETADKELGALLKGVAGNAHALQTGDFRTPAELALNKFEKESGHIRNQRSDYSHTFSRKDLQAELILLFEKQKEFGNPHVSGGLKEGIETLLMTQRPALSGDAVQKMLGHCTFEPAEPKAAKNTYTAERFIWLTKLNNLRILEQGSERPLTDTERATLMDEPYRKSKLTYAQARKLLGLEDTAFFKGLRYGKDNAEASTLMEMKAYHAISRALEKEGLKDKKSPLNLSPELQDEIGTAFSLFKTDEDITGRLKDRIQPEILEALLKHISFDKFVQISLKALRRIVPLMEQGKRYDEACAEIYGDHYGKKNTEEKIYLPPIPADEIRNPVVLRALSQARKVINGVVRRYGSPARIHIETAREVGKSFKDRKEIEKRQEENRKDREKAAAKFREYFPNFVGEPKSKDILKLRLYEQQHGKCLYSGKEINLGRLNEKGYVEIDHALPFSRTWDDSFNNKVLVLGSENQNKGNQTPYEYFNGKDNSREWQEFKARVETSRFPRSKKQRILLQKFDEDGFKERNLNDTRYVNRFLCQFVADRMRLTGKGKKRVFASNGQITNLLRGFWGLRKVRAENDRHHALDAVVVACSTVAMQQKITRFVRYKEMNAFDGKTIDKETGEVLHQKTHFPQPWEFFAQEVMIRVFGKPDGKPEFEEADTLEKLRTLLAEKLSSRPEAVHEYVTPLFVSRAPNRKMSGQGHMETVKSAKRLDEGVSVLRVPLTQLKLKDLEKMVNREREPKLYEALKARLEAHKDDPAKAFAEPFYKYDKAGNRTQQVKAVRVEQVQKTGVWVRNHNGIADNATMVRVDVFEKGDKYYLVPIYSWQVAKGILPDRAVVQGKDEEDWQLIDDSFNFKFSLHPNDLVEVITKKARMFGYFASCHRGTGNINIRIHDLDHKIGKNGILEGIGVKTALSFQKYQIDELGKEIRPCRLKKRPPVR

in vitro cleavage of linearized target plasmid by NmeCas9-sgRNA; molar excess of Acr over Cas9 at complete inhibition (fold molar excess of Acr): 7
Substance: AcrIIC5Smu, untagged (natural protein)
